Columns and labels:
[1] = system: Tie-2 phosphorylation (Ang-2-mediated) in HUVECs; assay: Inhibition of Ang-2-mediated Tie-2 phosphorylation in FOXO1-adenovirus infected HUVECs; type: cell-based, human; settings: antibody 0.5 μg/ml
Method: Further, the inventors have shown that infection of HUVECs with an adenovirus encoding FOXO1 results in expression and secretion of Ang-2, followed by activation of Tie-2 phosphorylation (Daly et al. 2006 PNAS 103:15491).
Anti-Ang-2 antibodies were tested for their ability to inhibit Tie-2 phosphorylation. Briefly, 7×10^5 HUVECs (Vec Technologies, Rensselaer, N.Y.) were plated in 6 cm cell culture dishes in 3.5 ml of MCDB131 Complete medium (Vec Technologies, Rensselaer, N.Y.). The following day, the cells were washed with Opti-MEM (Invitrogen Corp., Carlsbad, Calif.) and fed with 2 ml of Opti-MEM. […] Cells were then washed with MCDB131 and fed with 2 ml of MCDB131 containing anti-Ang-2 antibodies at a concentration of 0.5 μg/ml. At twenty hours post infection, cells were lysed and subjected to Tie-2 immunoprecipitation as described by Daly et al., Proc. Natl. Acad. Sci. USA 103:15491-15496 (2006). Immunoglobulin was collected on protein A/G beads (Santa Cruz Biotechnology, Santa Cruz, Calif.) for one hour. Beads were washed with cold lysis buffer and resuspended in SDS sample buffer for analysis by western blot with antibodies specific for phosphotyrosine (Millipore, Billerica, Mass.) or Tie-2. Signals were detected using HRP-conjugated secondary antibodies and ECL reagents (GE Healthcare, Piscataway, N.J.). X-Ray films were scanned and the phospho-Tie-2 and Tie-2 signals were quantified using ImageJ software. The phospho-Tie-2/Tie-2 ratios were used to determine the % inhibition for each anti-Ang-2 antibody (i.e. Percent inhibition=Reduction in phospho-Tie-2/Tie-2 as compared to control).

[2] = system: COLO 205 (Human Colorectal Adenocarcinoma Cell Line) tumors; assay: COLO 205 mouse tumor model; type: in vivo, mice; settings: COLO 205, NCr nude mice, 4 mg/kg intraperitoneal twice per week; for Avg Tumor Weight: approximately two weeks
Method: Briefly, 2×10^6COLO 205 cells in 100 μl of serum-free medium were injected subcutaneously into the flank of 6-8 week old male NCr nude mice (Taconic, Hudson, N.Y.). After tumor volumes reached an average of about 150 mm^3, mice were randomized into groups for treatment with antibody or Fc protein. Mice in each treatment group were administered an anti-Ang-2 antibody or Fc protein at a concentration of 4 mg/kg via intraperitoneal injection twice per week for approximately two weeks. Tumor volumes were measured twice per week over the course of the experiment and tumor weights were measured upon excision of tumors at the conclusion of the experiment. Averages (mean+/−standard deviation) of tumor weight and growth were calculated for each treatment group. “Avg. Tumor Growth” represents the average growth from the time of treatment initiation (when tumors were approximately 150 mm^3). Percent decrease of tumor weight and growth are calculated from comparison to Fc protein measurements.
A similar experiment was carried out to assess the effect of H1H685P, in particular, on COLO 205 tumor growth. Briefly, 2×10^6 COLO 205 cells in 100 μl of serum-free medium were implanted subcutaneously into the right hind flank of 9-11 week-old male SCID CB17 mice. When the tumors reached ˜125 mm^3, mice were randomized into 5 groups (n=7-8 mice/group) and treated twice per week with Fc protein (15 mg/kg), H1H685P (5 or 25 mg/kg) or Control II (5 or 25 mg/kg) for a period of 19 days. Tumor volumes were measured twice per week over the course of the experiment and tumor weights were measured upon excision of tumors at the end of the experiment. Averages of tumor weight and growth from the beginning of treatment were calculated for each group. Percent decrease of tumor weight and growth are calculated from comparison to the Fc control group.
To determine the effect of combining an anti-Ang-2 antibody with a VEGF inhibitor on the growth of COLO 205 xenografts, 2×10^6 cells were implanted subcutaneously into the right hind flank of 6-8 week-old female SCID mice. When the tumors reached an average volume of ˜350 mm^3, mice were randomized into 4 groups (n=6 mice/group) and treated with: human Fc protein (7.5 mg/kg), H1H685P (5 mg/kg), VEGF Trap (see U.S. Pat. No. 7,087,411) (2.5 mg/kg) or the combination of H1H685P+VEGF Trap. Mice were given a total of 3 doses over 10 days of treatment. Tumor volumes were measured twice per week over the course of the experiment. Averages of tumor growth from the start of treatment (mean+/−standard deviation) were calculated for each treatment group. Percent decrease of tumor growth was calculated from comparison to the Fc control group.
To test the effect of H1H685P in combination with a chemotherapeutic agent on tumor growth, 2.5×10^6 COLO 205 tumor cells were implanted subcutaneously into the right hind flank of 8-9 week-old male SCID mice. When the tumors reached an average volume of ˜150 mm^3 (day 17 after implantation), mice were randomized into 4 groups (n=5 mice/group) and treated as follows: the first group was treated sc with 15 mg/kg hFc and intraperitoneally (ip) with 5-FU vehicle; the second group was treated sc with 15 mg/kg of H1H685P; the third group was treated ip with 75 mg/kg of 5-FU; the fourth group was treated with the combination of 15 mg/kg H1H685P sc plus 75 mg/kg 5-FU ip. Mice received a total of three treatments, administered every 3-4 days. Tumor volumes were measured twice per week over the course of the experiment. Average (mean+/−standard deviation) tumor growth from the beginning of treatment until day 38 was calculated for each group. Percent decrease of tumor growth was calculated from comparison to the control group.

[3] = system: PC3 (Human Prostate Cancer Cell Line) tumors; assay: PC3 mouse tumor model; type: in vivo, NCr nude mice; settings: PC3, 2 mg/kg twice per week
Method: Briefly, 5×10^6 PC3 cells in 100 μl of growth factor-reduced Matrigel (BD Biosciences) were injected subcutaneously into the flanks of 6-8 week old male NCr nude mice (Taconic, Hudson, N.Y.). After tumor volumes reached an average of about 200 mm^3, mice were randomized into groups for treatment. […] Tumor volumes were measured twice per week over the course of the experiment and tumor weights were measured upon excision of tumors at the conclusion of the experiment. Averages (mean+/−standard deviation) of tumor weight and growth were calculated for each treatment group. Percent decrease of tumor weight and growth were calculated from comparison to Fc protein measurements.

Molecule	Inhibition of Tie-2 phosphorylation [1]	Inhibition of Tie-2 phosphorylation (in words) [1]	% Decrease in Tumor Growth [2]	% Decrease in Tumor Weight [2]	Avg Tumor Growth [2]	Avg Tumor Weight [2]	% Decrease in Tumor Growth [3]	% Decrease in Tumor Weight [3]	Avg Tumor Growth [3]	Avg Tumor Weight [3]
H1M724N: anti-Ang-2 antibody, HCVR/LCVR SEQ ID NOs 266/274 (antibody, V domains shown) VH: QVQLVESGGGVVQPGRSLRLSCAASGFTLSNYGMHWVRQAPGKGLEWVAVIWHDGSNTYYADSVKGRFTISRDNSKNTLYLQMNSLRAEDTAVYYCTREGLDFWSGYYPNWFDPWGQGTLVTVSS VL: DIQMTQSPSSLSASVGDRVTITCRASQGIRNDLGWYQQKPGKAPKRLIYAASNLQGGVPSRFSGSGSGTEFTLTISSLQPEDFAAYYCLQHNIYPLTFGGGTKVEIK	+++ (75-100%)	Especially robust inhibition	54%	37%	336 ± 125 mm^3	0.531 ± 0.103 g				
H2M750N: anti-Ang-2 antibody, HCVR/LCVR SEQ ID NOs 458/466 (antibody, V domains shown) VH: QVKLVESGGGVVQPGRSLRVSCAASGFTFSSYGMHWVRQAPGKGLEWLAIIWYDGDNKYYSDSVKGRFTISRDNSKNTLYLQMNSLRAEDTAEYYCVRDASIASRFLDYWGQGTLVTVSS VL: DIQMTQSPSSLSASIGDRVTITCRATQDINNYLAWFQQKPGKAPKSLIYATSNLQSGVPSKFSGSGSGTDYTLTISSLQPEDFSTYYCQQYHSYPLTFGGGTKVEIK	+++ (75-100%)	Especially robust inhibition					52%	37%	227 ± 195 mm^3	0.348 ± 0.128 g
H1H693P: anti-Ang-2 antibody, HCVR/LCVR SEQ ID NOs 90/92 (antibody, V domains shown) VH: EVQLVESGGGLVQPGESLRLSCAASGFTFSSYAMSWVRQGPGKGLEWVSSISGSGGTTYYADSVEGRFTISRDNSKNTLYLHMNSLRAEDTAVYYCAKDFLDYSTYLAFDLWGQGTMVTVSS VL: DIQMTQSPSSVSASVGDRVTITCRASQGISSWLAWYQQKPGKAPKLLIYAASSLQSGVPSRFSGSGSGTDFTLTISSLQPEDFATYYCQQANSFPRTFGQGTKVEIK	+++ (75-100%)	Especially robust inhibition								
H1H704P: anti-Ang-2 antibody, HCVR/LCVR SEQ ID NOs 186/188 (antibody, V domains shown) VH: QVQLVESGGDVVQPGRSLRLSCAASGFTFSSYGMHWVRQAPGKGLEWVAIIWYDGSNKYYADSVKGRFTISRDNSKNTLYLQMNSLRVEDTAVYSCARDFSISSRHFDYWGQGTLVTVSS VL: DIQMTQSPSSLSASVGDRVTITCRASQAINNYLAWFQQKPGKAPKSLIYATSNLQSGVPSQFSGSGSGTDYTLTISSLQPEDFATYYCQQYYIYPITFGQGTRLEIK	+++ (75-100%)	Especially robust inhibition								
H1M732N: anti-Ang-2 antibody, HCVR/LCVR SEQ ID NOs 242/250 (antibody, V domains shown) VH: EVQLVESGGGLVRPGGSLRLSCAASGFTFTNAWMSWVRQAPGKGLEWIGQIKSKTDGGTIDYAAPVKGRFTVSRDDSENTLFLQMNSLKTEDTAVYYCAGNWNYVDFDYWGQGTLVTVSS VL: DIQMTQSPSSLSASVGDRVTITCRASQDIRNDLGWYQQKPGKAPKRLIYAASSLQGGVPSRFSGSGSGTEFTLTISSLQPEDFATYYCLQHNSYPFTFGPGTKVDIK	++ (50-75%)									
H2M742N: anti-Ang-2 antibody, HCVR/LCVR SEQ ID NOs 386/394 (antibody, V domains shown) VH: DVQLLESGGDLVQPGGSLRLSCEASGFTFRNYVMIWVRQAPGKGLEWVSGISNSGGTTHYTDSVKGRFTISRDNSKNTLYLQINSLRAEDTAVYYCAKGYLDTSLIEGNWFDPWGQGTLVTVSS VL: NIVMTQSPLSLPVTPGEPASISCRSSQSLLHSNGFNYLNWFLQKPGQSPQLLIYLGSNRASGVPDKFSGSGSGTDFTLNINRVEAEDVGIYFCMQTLQTPLTFGGGTKVEIK	++ (50-75%)		42%	32%	427 ± 92 mm^3	0.576 ± 0.057 g		35%	220 ± 102 mm^3	0.407 ± 0.076 g
H2M743N: anti-Ang-2 antibody, HCVR/LCVR SEQ ID NOs 410/418 (antibody, V domains shown) VH: EVQLLESGGGLVQPGGSLRLSCAASGFTFRKYAMSWVRQAPGKGLEWVSVISVSGGNTYYADSVKGRFTISRDNSKNTLYLQLNSLRAEDTAVYYCAKDLTDIVLMVYVDYWGQGTLVTVSS VL: DIQMTQSPSSVSASVGDRVTITCRASQDIDRWLAWYQQKPGKAPKLLIYAASSLQSGVPSRFSGSGSGTDFTLTISTLQPEDFATYYCQQANSLPFTFGGGTKVEIK	+++ (75-100%)						50%	41%	179 ± 169 mm^3	0.372 ± 0.122 g
H1M749N: anti-Ang-2 antibody, HCVR/LCVR SEQ ID NOs 314/322 (antibody, V domains shown) VH: QVQLVESGGGVVQPGRSLRLSCAASGFTFSSYGMHWVRQAPGKGLEWVAVIWYDEFNKYYADSVKGRFTISRDNSKNTLYLQMNSLRAEDTAVYYCARERESGYSYGFDYWGQGTLVTVSS VL: EIVMTQSPATLSVSPGERATLSCRAGQSVSSNLAWYQQKPGQAPRLLIYGASTRATGIPARFSGSGSGTEFTLTISSLQSEDFAVYYCQQYNNWWTFGQGTKVEIK	++ (50-75%)		39%	29%	449 ± 169 mm^3	0.603 ± 0.142 g	54%	31%	220 ± 261 mm^3	0.383 ± 0.275 g

Source: patent publication US9926369B2, “Methods for treating hepatocellular cancer by administering an anti-Ang-2 antibody” (Regeneron Pharmaceuticals, Inc., priority 2009, dated 2018)
